Data published in patent US20230159663A1 (VIRTUOSO BINCO, published 2023).
Substitutions are numbered along the chain they refer to.

T1: human EpCAM extracellular domain with C-terminal His tag (Novoprotein #C339) (human, UniProt P16422 24-265)
T1 construct: extracellular domain; Bought protein
T1 sequence (looked up): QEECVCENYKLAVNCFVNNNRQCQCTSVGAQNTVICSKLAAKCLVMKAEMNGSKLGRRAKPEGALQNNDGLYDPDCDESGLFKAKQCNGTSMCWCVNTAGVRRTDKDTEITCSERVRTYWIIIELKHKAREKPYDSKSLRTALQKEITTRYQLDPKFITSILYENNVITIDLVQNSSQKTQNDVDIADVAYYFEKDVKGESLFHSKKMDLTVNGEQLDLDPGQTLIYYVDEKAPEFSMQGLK

T2: human EpCAM on cells (CHO-K1 cells transfected with human EpCAM; EpCAM+ tumour cell lines) (human, UniProt P16422 24-314)
T2 construct: whole, on cells; also called CHO-K1-huEpCAM cells; cell-surface EpCAM
T2 sequence (looked up): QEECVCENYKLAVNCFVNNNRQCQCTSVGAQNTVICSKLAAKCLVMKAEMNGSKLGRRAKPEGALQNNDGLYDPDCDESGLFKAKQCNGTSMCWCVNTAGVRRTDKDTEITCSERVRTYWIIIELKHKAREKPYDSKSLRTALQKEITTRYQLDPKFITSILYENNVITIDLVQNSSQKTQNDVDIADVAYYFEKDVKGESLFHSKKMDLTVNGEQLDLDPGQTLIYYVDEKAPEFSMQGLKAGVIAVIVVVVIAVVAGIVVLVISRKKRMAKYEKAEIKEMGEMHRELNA

B1: mAb-30 (chimeric anti-EpCAM antibody) (antibody, V domains shown)
VH: EVQLQQSGPELVKPGASVKISCKASGYTFTDYYMSWVKQSHGRSLEWIGEINPDNGDTSHNQKFKGKATMTVDKSSGTGNMEIRSLTSEDAGIYYCTSYFSYWGQGTLVTVSA
VL: DVLMTQSPLSLPVSLGDQASISCRSSQSIVDSDGSTYLEWYLQKPGQSPKLLIYKVSNRFSGVPDRFSGSGSGTDFTLKISGVEAEDLGVYYCFQGSHVPYTFGGGTKLEIK
B2: mAb-39 (chimeric anti-EpCAM antibody) (antibody, V domains shown)
VH: QIQLVQSGPELKKPGETVKISCKASGYTFTSYGVTWVKQAPGKGLKWMGWINTYSGVPTYADDFKGRFAFSLETSASTAYLQINNLKNEDTATYFCARSHSNYDFWGQGTTLTVSS
VL: DIVMTQSQKFMSTTVGDRVSITCQASQNVGTDVGWYQQKPGQSPKLLIYSASNRYTGVPDRFTGSGSGTDFTLTISNMQSEDLADYFCQQYSSYPRTFGGGTKLEIK
B3: mAb-28 (chimeric anti-EpCAM antibody) (antibody, V domains shown)
VH: QVQLQQSGAELARPGASVKVSCKASGYTFTSYGISWVKQRTGQGLEWIGEIYPTRDYTYYNENFKGKATLTADKSSTTAYMELRSLTSEDSAVYFCARDGPPFAYWGQGTLVTVSA
VL: DIVMTQAAFSNPVTLGTSASISCRSSKSLLHSNGFTYLHWYLQKPGQSPQLLIYQMSSLASGVPDRFSSSGSGTDFTLRISRVEAEDVGVYYCAQNLELPRTFGGGTKLEIK
B4: mAb-4 (chimeric anti-EpCAM antibody) (antibody, V domains shown)
VH: QVQLQQPGAELVRPGTSVKLSCKASGYTFTSYWMHWIKQRPGQGLEWIGVIDPSNSYSNYNQKFKGRATLTVDTYSSTAYMQLSSLTSEDSAVYYCARPYNHGRDAMDYWGQGTSVTVSS
VL: DVLLTQTPLSLSVSLGDQASISCRSSQSFVHINGNTYLEWFLQKPGLSPKLLIYKVSNRFSGVPDRFSGSGSGTDFTLKISRVEAEDLGIYYCFQGSHVPLTFGAGTKLELK
B5: mAb-36 (chimeric anti-EpCAM antibody) (antibody, V domains shown)
VH: QVQVQQSGPELVKPGTSVKISCKTSGYTFTDYYITWVKQRPGQGLEWIGWIFPGRGISFYNENFKDKATLTVDKSSNTAFMLLSSLTSEDSAVYFCARWGGTWFAYWGQGTLITVSA
VL: EIVLTQSPAITAAFLGQKVTITCSASSSVSYIHWYQQKSDTSPKPWIYEISKLASGVPARFSGSGSGTSYSLTISSMEAEDAAIYYCQQWNYPLITFGGGTKLEIK
B6: mAb-33 (chimeric anti-EpCAM antibody) (antibody, V domains shown)
VH: EVLLQQSVADLVRPGASVKLSCTASGLNIKNTYIHWVKQMPEQGLEWIGRIGPANGNTKYAPKFQGKATITADTSSDTAYLQLSSLTSEDTAIYYCALAYYRIYWGQGTTLTVSS
VL: DIVLTQSPASLAVSLGQRATISCRASESVDNSGISFMHWYQQKPGQSPKLLIYRASNLESGIPARFSGSGSRTDFTLTINPVETDDVATYYCQQSYENPWTFGGGTKLEIK
B7: mAb-35 (chimeric anti-EpCAM antibody) (antibody, V domains shown)
VH: EVQLQQSVAELVRPGASVKLSCTASGFNIKNTYMHWVKQRPEQGLEWIGRIAPANGNTKYAPKFQDKATITANTSSNTAYLQLGSLTSEDTAIYYCAFIYQLPYWGQGTTLTVSS
VL: B6 VL with S32Y, Y40F, S47P, Y53F, N57S, E97K, N98D, G105A
B8: mAb-37 (chimeric anti-EpCAM antibody) (antibody, V domains shown)
VH: B7 VH with A61D, N73D, T74S, Q82H, G84S, T109S
VL: B6 VL with A9T, S32Y, S47P, N57S, T84S, E97K, N98D, G105A

Target: T1, human EpCAM extracellular domain with …
Assay: ELISA on human EpCAM

binding result | Binder
binds | B1
binds | B2
binds | B3
binds | B4
binds | B5
binds | B6
binds | B7
binds | B8

Target: T2, human EpCAM on cells (CHO-K1 cells …)
Assay: flow cytometry on CHO-K1 cells transfected with human EpCAM

binding result | Binder
binds | B1
binds | B2
binds | B3
binds | B5
binds | B6
binds | B7
